The supplement of paper PMC10126150
± gives the standard deviation of the averaged measurements.

System: ATP
Test: switch fluorescence ratio, 500 uM ATP over buffer (Cy3 cluster intensity, sum of 5 cycles each) (fold (ratio)); higher = stronger signal-on switching upon ATP binding; sequences stand for … in TCGTCGGCAGCGTCAGATGTGTATAAGAGACAGTTTTTTTTTTTTTTTTTTTTTTTTT…TC
Conditions: aptamer strand: ATP DNA aptamer (quencher-CACCTGGGGGAGTATTGCGGAGGAAGG + anchor), 100 nM annealed; ATP concentration: 500 uM
Method in brief: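 Values give the fluorescence ratio for each switch-domain sequence, averaged from per-cluster ratios of summed target-cycle to summed buffer-cycle Cy3 intensity. The Cy3-labelled switching-strand clusters sat on a modified Illumina MiSeq flow-cell, were annealed to 100 nM quencher-labelled ATP aptamer, and were imaged in selection buffer, then after 15 min with 500 uM ATP at 22 °C. Five cycles ran with NaOH stripping and re-annealing between them, and clusters outside 100-1000 RFU were excluded.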
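Also: ATP exposure 15 min at 22 °C before imaging.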

Sequence	switch fluorescence ratio
TATGTTAGTT	1.01 ± 0.019
TATGTTTCGG	0.98 ± 0.011
TATTAAGTGC	0.955 ± 0.039
TATTAATGCT	1.028 ± 0.0052
TATTAATTCG	1.01 ± 0.032
TATTAGAATC	0.994 ± 0.026
TATTAGTGAA	1.01 ± 0.013
TATTAGTGCT	0.977 ± 0.033
TATTAGTTGC	1 ± 0.034
TATTATGAAT	0.999 ± 0.0024
TATTATGGAG	0.988 ± 0.021
TATTATTTCA	0.991 ± 0.024
TATTCACATT	0.994 ± 0.024
TATTCACGGG	1.0859 ± 0.00034
TATTCACTTG	1.04 ± 0.025
TATTCAGATA	0.9773 ± 0.008
TATTCAGCTA	1.07 ± 0.099
TATTCATTTG	1.027 ± 0.0068
TATTCCAATA	0.995 ± 0.03
TATTCGATTT	1.032 ± 0.0016
TATTCGGTTT	0.9889 ± 0.0048
TATTCGTTTT	0.989 ± 0.011
TATTCTAAAT	1.01 ± 0.016
TATTCTAGAG	0.989 ± 0.044
TATTGAGGGT	0.981 ± 0.034

Sequence	switch fluorescence ratio
TATTGCGGCC	1.02 ± 0.026
TATTGCTGCT	0.983 ± 0.032
TATTGGAGGG	0.974 ± 0.019
TATTGGCTTC	0.992 ± 0.018
TATTGGGAAA	1.06 ± 0.045
TATTGGGATA	1.01 ± 0.027
TATTGGGCAG	1.01 ± 0.023
TATTGGGCAT	0.985 ± 0.018
TATTGGGGA	0.958 ± 0.011
TATTGGGTAA	1.11 ± 0.14
TATTGGGTGA	0.99228 ± 0.00097
TATTGGGTGT	1.034 ± 0.0014
TATTGTACTC	1.03 ± 0.018
TATTGTAGGG	0.97 ± 0.013
TATTGTATGA	1.029 ± 0.0049
TATTGTCAGA	1.01 ± 0.019
TATTGTCCTT	1.019 ± 0.0056
TATTTAAGGT	1 ± 0.02
TATTTACGCT	1.05 ± 0.025
TATTTACTCG	1.05 ± 0.073
TATTTAGAAG	1.02 ± 0.054
TATTTAGGAG	0.999 ± 0.021
TATTTAGGCG	0.99 ± 0.064
TATTTAGGTA	1.022 ± 0.0031
TATTTAGGTG	1.11 ± 0.018

Sequence	switch fluorescence ratio
TATTTATAGT	1.02 ± 0.013
TATTTATCTT	0.989 ± 0.021
TATTTATGGG	0.978 ± 0.023
TATTTCTGAT	0.988 ± 0.016
TATTTCTTT	0.99 ± 0.026
TATTTGAGCT	1.03 ± 0.037
TATTTGGATA	1.05 ± 0.1
TATTTGGCTA	0.983 ± 0.045
TATTTGGGCG	1.053 ± 0.0059
TATTTGTACG	1.018 ± 0.0046
TATTTGTAGT	1.01 ± 0.039
TATTTGTCGG	1.0172 ± 0.00047
TATTTGTTAG	0.997 ± 0.031
TATTTTACTA	1.01 ± 0.032
TATTTTAGAG	0.966 ± 0.018
TATTTTAGGA	0.9743 ± 0.003
TATTTTGCGC	1.02 ± 0.026
TATTTTGGCG	0.986 ± 0.025
TATTTTTCGC	0.967 ± 0.015
TATTTTTCTC	0.983 ± 0.034
TATTTTTGGT	0.986 ± 0.021
TATTTTTTCG	0.987 ± 0.027
TATTTTTTGG	1.02 ± 0.033
TCAAAAAATT	1.02 ± 0.037
TCAAACCGCA	1.91 ± 0.16

Sequence	switch fluorescence ratio
TCAAACGAC	1.08 ± 0.011
TCAAAGGGCG	0.99 ± 0.049
TCAAAGGTAC	1.04 ± 0.0092
TCAAAGGTGT	1.22 ± 0.14
TCAAATAGGC	1.016 ± 0.01
TCAAATCGGT	1.03 ± 0.042
TCAACCCTTA	1.03 ± 0.038
TCAACGATAT	1.07 ± 0.075
TCAACTATTT	0.972 ± 0.031
TCAAGAGCTG	1.08 ± 0.072
TCAAGATGTG	0.99 ± 0.036
TCAAGATTGG	0.986 ± 0.023
TCAAGCGGGG	1.06 ± 0.09
TCAAGCTTTT	1.01 ± 0.017
TCAAGGGAAA	1 ± 0.058
TCAAGGGGAA	1 ± 0.019
TCAAGGTCCT	1.127 ± 0.0091
TCAATACGTT	1.09 ± 0.016
TCAATCATAT	0.982 ± 0.033
TCAATCGCTT	1.09 ± 0.026
TCAATCGGAA	1.06 ± 0.014
TCAATCTGTG	1.01 ± 0.066
TCAATGAATA	0.986 ± 0.02
TCAATGGTAT	1.17 ± 0.28
TCAATGGTGG	1.01 ± 0.028

Sequence	switch fluorescence ratio
TCAATGTGGT	1.016 ± 0.008
TCAATGTTTT	0.9846 ± 0.0031
TCAATTAGGC	1.05 ± 0.027
TCACACGGCG	1.13 ± 0.18
TCACACGTCG	1.02 ± 0.013
TCACAGATGG	1.02 ± 0.036
TCACAGTCTA	1.04 ± 0.058
TCACCAGGGG	1.76 ± 0.72
TCACCGAGGC	1.15 ± 0.07
TCACCTTGTT	1.03 ± 0.037
TCACGAGGCT	1.038 ± 0.0097
TCACGATTGG	1.02 ± 0.02
TCACGCCGGG	1.04 ± 0.019
TCACGGATGT	1.04 ± 0.012
TCACGGCTGG	0.971 ± 0.029
TCACGGGAAT	1.02 ± 0.055
TCACGGGGGT	1.17 ± 0.23
TCACGTTATG	1.11 ± 0.026
TCACTAGATC	0.998 ± 0.021
TCACTGGGTG	1.23 ± 0.035
TCACTGTTGT	0.993 ± 0.032
TCACTTATAA	1.02 ± 0.018
TCACTTATGG	1.03 ± 0.033
TCAGAAAGGG	1.021 ± 0.0059
TCAGAAGCGG	1.3 ± 0.1

Sequence	switch fluorescence ratio
TCAGAAGGCG	0.981 ± 0.015
TCAGAAGGGT	0.994 ± 0.03
TCAGAATCTA	1 ± 0.015
TCAGACATCG	1.01 ± 0.035
TCAGACTAGA	1.028 ± 0.0045
TCAGATGGGG	1.03 ± 0.021
TCAGATTAGT	0.968 ± 0.016
TCAGCATGTA	1.04 ± 0.019
TCAGCCGGGA	1.08 ± 0.024
TCAGCCGTTT	1.05 ± 0.054
TCAGCTCCGT	1.08 ± 0.025
TCAGGAAAAG	0.989 ± 0.019
TCAGGAAAGG	1.003 ± 0.0027
TCAGGCGGGC	1.015 ± 0.0058
TCAGGCGTTG	0.971 ± 0.027
TCAGGCTGGG	1.02 ± 0.016
TCAGGGCTAA	1.02 ± 0.062
TCAGGGGATC	1.01 ± 0.017
TCAGGGGCGA	1.041 ± 0.0078
TCAGGGGCGG	1.04 ± 0.096
TCAGGGGGGG	1.02 ± 0.022
TCAGGGGGTT	1.05 ± 0.037
TCAGGGGTCT	0.994 ± 0.011
TCAGGGGTTG	1.09 ± 0.17
TCAGGGTGCC	1.017 ± 0.0094

Sequence	switch fluorescence ratio
TCAGGTACAT	1.07 ± 0.014
TCAGGTCGCA	0.9894 ± 0.0054
TCAGGTTTGT	1.28 ± 0.34
TCAGGTTTTT	1.13 ± 0.22
TCAGTAACGC	1.05 ± 0.013
TCAGTAGATC	1.02 ± 0.044
TCAGTGGGTT	0.9968 ± 0.0089
TCAGTGTCCG	0.966 ± 0.038
TCAGTTGTAC	1.08 ± 0.011
TCAGTTGTCA	0.981 ± 0.017
TCAGTTTATG	0.961 ± 0.011
TCATAAAAGC	0.99 ± 0.027
TCATAATAGC	0.977 ± 0.028
TCATAATTGG	1.005 ± 0.0045
TCATACTTAA	1.04 ± 0.1
TCATAGATTT	0.988 ± 0.013
TCATAGCGGT	1.095 ± 0.0014
TCATAGGTGG	1 ± 0.034
TCATAGTTCA	1.03 ± 0.012
TCATATGAGT	1 ± 0.051
TCATATTAAG	0.9911 ± 0.0028
TCATCCCTAT	1.1 ± 0.15
TCATCGCTTT	1.08 ± 0.021
TCATCTTGGC	1.02 ± 0.096
TCATGAATTT	0.9885 ± 0.0089

Sequence	switch fluorescence ratio
TCATGACTTT	1.012 ± 0.0038
TCATGATTTT	0.9992 ± 0.0048
TCATGCATGT	1.035 ± 0.01
TCATGCCCTT	1.02 ± 0.033
TCATGCTGGT	1.01 ± 0.024
TCATGGAAGG	1.01 ± 0.026
TCATGGAGAT	0.965 ± 0.033
TCATGGCCAG	1.04 ± 0.078
TCATGGGCTT	1.01 ± 0.0059
TCATGGGGCT	1.02 ± 0.019
TCATGGTATT	1.01 ± 0.011
TCATGGTGGG	1 ± 0.025
TCATGGTTGG	0.997 ± 0.028
TCATGGTTTT	0.977 ± 0.016
TCATGTGGTA	0.9915 ± 0.0093
TCATGTGTTG	0.992 ± 0.045
TCATTAAGGC	1.01 ± 0.015
TCATTAAGGG	0.99105 ± 0.00093
TCATTATAAT	1.006 ± 0.0062
TCATTATTAA	1.01 ± 0.027
TCATTCGGAG	1.02 ± 0.014
TCATTCGTTT	1.01 ± 0.016
TCATTCTGGG	1.008 ± 0.0097
TCATTGAAGT	0.991 ± 0.008
TCATTGATCG	0.987 ± 0.011
